Results on 3 substances are retold here after publication PMC8102632.

For orientation: stoichiometry N means the number of molecules, sites or subunits per partner or assembly.

Where only a bound is given, the exact number is not on record here.

Test [1] deals with Thiomicrospira Cas6-RT-Cas1 RT-K574A mutant (Thiomicrospira).
Test [2] has as its target Thiomicrospira Cas2 (Thiomicrospira). The test can be described thus: cryo-EM structure; 50 uM Cas6-RT-Cas1, 50 uM Cas2 and 12.5 uM half-site DNA substrate dialysed into 10 mM HEPES pH 7.5, 5 mM EDTA, 500 mM KCl, 0.5 mM TCEP, 0.5% glycerol; purified over Superose 6 Increase; single particle cryo-EM; no density seen for the DNA.
Test [3] concerns the target Thiomicrospira Cas6-RT-Cas1 fusion protein (Thiomicrospira). The description is as above.

For “Thiomicrospira Cas6-RT-Cas1 RT-K574A mutant (enzyme)”, the ligation of ssRNA protospacer into pCRISPR by the mutant Cas6-RT-Cas1—Cas2 complex relative to WT (RT-helix of one protomer with Cas1a of another) in test [1] was more than 80 % reduction.
Regarding Thiomicrospira Cas2 (natural protein), in test [2], the stoichiometry N is 2.
As for “Thiomicrospira Cas6-RT-Cas1 fusion protein (enzyme)”, in test [3], the stoichiometry N came out at 2.
